Measurements published in the supplement of paper PMC10724198.
± gives the standard deviation of the averaged measurements.
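Note: PSI is a weighted mean of sequencing reads over stability bins, variants kept only with over 10 reads, mCherry proximal and sfGFP distal, peptide attached via GGGS linker.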

The sequences below were run on Saccharomyces cerevisiae (assay: protein stability index of tFT-peptide fusion (C-terminal peptide) (PSI (0-1 scale)); higher = more stable (slower turnover)). Details: genetic background: das1 deletion; temperature: 37 C.
Description: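 MPS profiling in S. cerevisiae of the tFT-X12 degron library: putative degron peptides plus stable controls, 12 aa, fused to the C-terminus of a sfGFP-mCherry timer. Cells are FACS-sorted into 8 mCherry/sfGFP bins and deep-sequenced. PSI runs from 0 (unstable) to 1 (stable). Backgrounds are wild type, das1Δ and doa10Δ at 30 °C, and wild type, das1Δ, cdc34-1 and cdc53-1 at 37 °C; 2-3 technical replicates each.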
For PGRHSVRFVFVC, the protein stability index was 0.581 ± 0.024.
For PKRNNRKAQQIS, the protein stability index was 0.704 ± 0.06.
PPAPTPFPPSPR showed a protein stability index of 0.741 ± 0.018.
Sequence PPLPPPPASVPP has a protein stability index of 0.7088 ± 0.0051.
Sequence PPPPPPPFLFFL has a protein stability index of 0.747 ± 0.013.
Work on PPTRVPVTLFLV yielded a protein stability index of 0.6761 ± 0.0013.
With PRLWLYCLIISL the protein stability index was 0.335 ± 0.015.
In the case of PVCRQVGVRLVA, the protein stability index is reported as 0.6482 ± 0.0047.
For PVSEPCAWRIIA, the protein stability index was 0.699 ± 0.018.
For PWFCYVQLVVPV, the protein stability index was 0.349 ± 0.0058.
PYPPTSLPPTWQ showed a protein stability index of 0.711 ± 0.017.
Sequence QGGTWKKLVKMI has a protein stability index of 0.7165 ± 0.0019.
Sequence QNVKRIVRHMLT has a protein stability index of 0.723 ± 0.04.
QVSHLFAAVQLA gave a protein stability index of 0.65 ± 0.0091.
QWRMLTCLMERL showed a protein stability index of 0.4882 ± 0.0037.
In the case of RAPPPSSLLSPP, the protein stability index is reported as 0.718 ± 0.027.
For RARRFGKWERSG, the protein stability index was 0.731 ± 0.024.
In the case of RDPLAPLLLAIP, the protein stability index is reported as 0.7006 ± 0.0047.
RDYIAAKLVVCG gave a protein stability index of 0.488 ± 0.0021.
For REAFVVLAVFFH, the protein stability index was 0.406 ± 0.02.
Work on RFCLPLRLPVTT yielded a protein stability index of 0.5865 ± 0.0022.
RFFVLSFFFLVS showed a protein stability index of 0.416 ± 0.014.
RFGLPLLVVTWL was tested, and the protein stability index was 0.5314 ± 0.005.
Work on RFHTFVFCLLCL yielded a protein stability index of 0.516 ± 0.026.
RFLFYSFPIHTL gave a protein stability index of 0.67 ± 0.043.
For RFVLVFLVSLII, the protein stability index was 0.541 ± 0.042.
For RGLANLIVIVSS, the protein stability index was 0.603 ± 0.015.
For RGSLYLILVLIG, the protein stability index was 0.4035 ± 0.00092.
Sequence RHTVFFCQLLLV has a protein stability index of 0.43923 ± 3.7e-05.
In the case of RKNSQKILKLSG, the protein stability index is reported as 0.739 ± 0.024.
For RKQLSCIMIWCK, the protein stability index was 0.431 ± 0.0082.
For RLFLLIECSSGF, the protein stability index was 0.493 ± 0.024.
Sequence RLGSLVPLAKQL has a protein stability index of 0.737 ± 0.023.

Same assay, conditions: genetic background: doa10 deletion; temperature: 30 C
Sequence PGRHSVRFVFVC has a protein stability index of 0.113 ± 0.0067.
PKRNNRKAQQIS showed a protein stability index of 0.249 ± 0.016.
For PPAPTPFPPSPR, the protein stability index was 0.697 ± 0.026.
PPLPPPPASVPP was tested, and the protein stability index was 0.6476 ± 0.0014.
In the case of PPPPPPPFLFFL, the protein stability index is reported as 0.458 ± 0.015.
For PPTRVPVTLFLV, the protein stability index was 0.0767 ± 0.022.
PRLWLYCLIISL gave a protein stability index of 0.157 ± 0.011.
With PVCRQVGVRLVA the protein stability index was 0.265 ± 0.0046.
Work on PVSEPCAWRIIA yielded a protein stability index of 0.0726 ± 0.0028.
PWFCYVQLVVPV showed a protein stability index of 0.188 ± 0.0072.
PYPPTSLPPTWQ showed a protein stability index of 0.678 ± 0.023.
In the case of QGGTWKKLVKMI, the protein stability index is reported as 0.0823 ± 0.02.
QNVKRIVRHMLT gave a protein stability index of 0.207 ± 0.018.
Sequence QVSHLFAAVQLA has a protein stability index of 0.337 ± 0.021.
Sequence QWRMLTCLMERL has a protein stability index of 0.398 ± 0.056.
RAPPPSSLLSPP showed a protein stability index of 0.687 ± 0.0087.
Work on RARRFGKWERSG yielded a protein stability index of 0.33 ± 0.03.
RDPLAPLLLAIP was tested, and the protein stability index was 0.596 ± 0.04.
Work on RDYIAAKLVVCG yielded a protein stability index of 0.267 ± 0.0034.
For REAFVVLAVFFH, the protein stability index was 0.193 ± 0.0039.
RFCLPLRLPVTT showed a protein stability index of 0.439 ± 0.0083.
RFFVLSFFFLVS was tested, and the protein stability index was 0.209 ± 0.01.
RFGLPLLVVTWL gave a protein stability index of 0.4591 ± 0.0032.
For RFHTFVFCLLCL, the protein stability index was 0.2796 ± 0.00049.
For RFLFYSFPIHTL, the protein stability index was 0.0683 ± 0.0092.
For RFVLVFLVSLII, the protein stability index was 0.364 ± 0.016.
RGLANLIVIVSS showed a protein stability index of 0.186 ± 0.012.
For RGSLYLILVLIG, the protein stability index was 0.118 ± 0.033.
RHTVFFCQLLLV gave a protein stability index of 0.175 ± 0.024.
RKNSQKILKLSG showed a protein stability index of 0.256 ± 0.013.
RKQLSCIMIWCK showed a protein stability index of 0.188 ± 0.0052.
Sequence RLFLLIECSSGF has a protein stability index of 0.271 ± 0.0039.
RLGSLVPLAKQL showed a protein stability index of 0.319 ± 0.0077.

Same assay, conditions: genetic background: wild type; temperature: 30 C
PGRHSVRFVFVC was tested, and the protein stability index was 0.112 ± 0.028.
With PKRNNRKAQQIS the protein stability index was 0.254 ± 0.043.
With PPAPTPFPPSPR the protein stability index was 0.672 ± 0.024.
With PPLPPPPASVPP the protein stability index was 0.682 ± 0.041.
In the case of PPPPPPPFLFFL, the protein stability index is reported as 0.472 ± 0.022.
In the case of PPTRVPVTLFLV, the protein stability index is reported as 0.0832 ± 0.011.
PRLWLYCLIISL showed a protein stability index of 0.14 ± 0.03.
In the case of PVCRQVGVRLVA, the protein stability index is reported as 0.311 ± 0.034.
Work on PVSEPCAWRIIA yielded a protein stability index of 0.0645 ± 0.018.
PWFCYVQLVVPV showed a protein stability index of 0.221 ± 0.03.
PYPPTSLPPTWQ gave a protein stability index of 0.671 ± 0.038.
QGGTWKKLVKMI gave a protein stability index of 0.101 ± 0.018.
Work on QNVKRIVRHMLT yielded a protein stability index of 0.251 ± 0.022.
QVSHLFAAVQLA gave a protein stability index of 0.364 ± 0.051.
Work on QWRMLTCLMERL yielded a protein stability index of 0.379 ± 0.012.
RAPPPSSLLSPP was tested, and the protein stability index was 0.671 ± 0.029.
Sequence RARRFGKWERSG has a protein stability index of 0.377 ± 0.03.
Sequence RDPLAPLLLAIP has a protein stability index of 0.609 ± 0.013.
Work on RDYIAAKLVVCG yielded a protein stability index of 0.318 ± 0.027.
In the case of REAFVVLAVFFH, the protein stability index is reported as 0.199 ± 0.03.
Work on RFCLPLRLPVTT yielded a protein stability index of 0.458 ± 0.016.
RFFVLSFFFLVS gave a protein stability index of 0.212 ± 0.029.
In the case of RFGLPLLVVTWL, the protein stability index is reported as 0.402 ± 0.0044.
For RFHTFVFCLLCL, the protein stability index was 0.277 ± 0.015.
RFLFYSFPIHTL gave a protein stability index of 0.0745 ± 0.019.
RFVLVFLVSLII gave a protein stability index of 0.397 ± 0.016.
For RGLANLIVIVSS, the protein stability index was 0.228 ± 0.027.
For RGSLYLILVLIG, the protein stability index was 0.163 ± 0.03.
For RHTVFFCQLLLV, the protein stability index was 0.185 ± 0.026.
RKNSQKILKLSG showed a protein stability index of 0.317 ± 0.019.
With RKQLSCIMIWCK the protein stability index was 0.204 ± 0.015.
Work on RLFLLIECSSGF yielded a protein stability index of 0.293 ± 0.035.
RLGSLVPLAKQL gave a protein stability index of 0.289 ± 0.023.

Same assay, conditions: genetic background: wild type; temperature: 37 C
PGRHSVRFVFVC was tested, and the protein stability index was 0.143 ± 0.0068.
For PKRNNRKAQQIS, the protein stability index was 0.493 ± 0.019.
PPAPTPFPPSPR was tested, and the protein stability index was 0.728 ± 0.01.
With PPLPPPPASVPP the protein stability index was 0.68 ± 0.03.
Sequence PPPPPPPFLFFL has a protein stability index of 0.61 ± 0.013.
PPTRVPVTLFLV was tested, and the protein stability index was 0.09 ± 0.0034.
PRLWLYCLIISL showed a protein stability index of 0.277 ± 0.022.
With PVCRQVGVRLVA the protein stability index was 0.466 ± 0.039.
PVSEPCAWRIIA gave a protein stability index of 0.0736 ± 0.0023.
PWFCYVQLVVPV showed a protein stability index of 0.313 ± 0.0036.
In the case of PYPPTSLPPTWQ, the protein stability index is reported as 0.701 ± 0.025.
QGGTWKKLVKMI showed a protein stability index of 0.165 ± 0.019.
In the case of QNVKRIVRHMLT, the protein stability index is reported as 0.41 ± 0.027.
QVSHLFAAVQLA showed a protein stability index of 0.573 ± 0.011.
QWRMLTCLMERL gave a protein stability index of 0.496 ± 0.03.
With RAPPPSSLLSPP the protein stability index was 0.706 ± 0.037.
Work on RARRFGKWERSG yielded a protein stability index of 0.544 ± 0.0099.
RDPLAPLLLAIP gave a protein stability index of 0.6816 ± 0.0035.
For RDYIAAKLVVCG, the protein stability index was 0.4612 ± 0.0016.
For REAFVVLAVFFH, the protein stability index was 0.315 ± 0.05.
Sequence RFCLPLRLPVTT has a protein stability index of 0.589 ± 0.045.
Work on RFFVLSFFFLVS yielded a protein stability index of 0.384 ± 0.0071.
With RFGLPLLVVTWL the protein stability index was 0.512 ± 0.011.
RFHTFVFCLLCL was tested, and the protein stability index was 0.386 ± 0.015.
Work on RFLFYSFPIHTL yielded a protein stability index of 0.105 ± 0.033.
RFVLVFLVSLII was tested, and the protein stability index was 0.48 ± 0.019.
With RGLANLIVIVSS the protein stability index was 0.392 ± 0.011.
RGSLYLILVLIG showed a protein stability index of 0.268 ± 0.021.
With RHTVFFCQLLLV the protein stability index was 0.277 ± 0.046.
With RKNSQKILKLSG the protein stability index was 0.576 ± 0.029.
Sequence RKQLSCIMIWCK has a protein stability index of 0.40377 ± 0.00039.
RLFLLIECSSGF was tested, and the protein stability index was 0.508 ± 0.019.
With RLGSLVPLAKQL the protein stability index was 0.413 ± 0.04.
